Patent US20250296994A1 (SYSMEX, published 2025)

Experiments:
human Crtac1A = target: T1, human Crtac1A (human, UniProt Q9NQ79 28-661); assay: immunoblotting (Wes) of denatured recombinant Crtac1A/1B and human CSF
T1 construct: Recombinant protein (IB control sample) or native protein in human CSF and serum; also called rCrtac1A
T1 sequence: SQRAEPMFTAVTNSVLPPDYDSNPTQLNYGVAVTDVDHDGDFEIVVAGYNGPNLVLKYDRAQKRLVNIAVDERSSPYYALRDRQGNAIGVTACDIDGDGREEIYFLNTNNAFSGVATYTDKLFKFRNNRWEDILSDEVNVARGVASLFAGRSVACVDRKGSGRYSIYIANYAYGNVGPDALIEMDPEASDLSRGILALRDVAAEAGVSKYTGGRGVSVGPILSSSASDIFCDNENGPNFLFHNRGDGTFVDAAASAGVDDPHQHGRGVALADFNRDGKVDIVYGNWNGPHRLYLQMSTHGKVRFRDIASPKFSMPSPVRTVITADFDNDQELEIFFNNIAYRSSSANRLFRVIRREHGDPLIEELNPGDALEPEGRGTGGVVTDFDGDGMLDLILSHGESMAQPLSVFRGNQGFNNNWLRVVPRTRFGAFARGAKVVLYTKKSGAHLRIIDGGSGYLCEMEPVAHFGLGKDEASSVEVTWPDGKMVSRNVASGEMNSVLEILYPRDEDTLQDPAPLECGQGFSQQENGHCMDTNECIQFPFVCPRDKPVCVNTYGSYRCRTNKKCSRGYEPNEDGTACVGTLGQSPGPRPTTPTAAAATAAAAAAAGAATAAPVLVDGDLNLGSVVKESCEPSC
Protocol: Study of specificity of monoclonal antibody to antigen (1) Immunoblotting (IB) analysis using a monoclonal antibody purified from the culture supernatant of hybridomas of clones 1B4 and 15C2 was performed on human cerebrospinal fluid (2 specimens: referred to as CSF1 and CSF2) by simple Western (registered trademark) system Wes (registered trademark) (Protein Simple Corporation). In the analysis by Wes, capillary electrophoresis and IB of the sample were performed fully automatically by the apparatus. Specific operations such as preparation of an electrophoresis sample, preparation of a diluent of a primary antibody, and analysis by an apparatus were performed according to the protocol attached to Wes. As a control sample, recombinant proteins of Crtac1A and Crtac1B were used. These recombinant proteins were prepared in the same manner as in Example 1. For comparison, analysis using an anti-rat LOTUS antibody (ITM, 45-12C) as a primary antibody was also performed.
In FIG. 5, “conventional antibody” represents the anti-rat LOTUS antibody, and “rCrtac1A/1B” represents recombinant proteins of Crtac1A and Crtac1B. […] However, when monoclonal antibodies derived from clones 1B4 and 15C2 were used, a band was not detected. In the electrophoresis sample, the protein in the sample was denatured by addition of a sample buffer and heating.

[1] = target: T2, antigen peptide P3 (BSA conjugate in the primary screening) (human, NH2-PEG6 at the N-terminus; C-terminal amide; disulfide bond between the two cysteine residues; carrier protein (BSA in the screening ELISA, KLH for immunization) conjugated to the N-terminal amino …); assay: primary screening ELISA, BSA-conjugated antigen peptide immobilized, hybridoma culture supernatant
T2 peptide: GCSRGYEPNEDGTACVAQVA
Protocol: In order to select hybridomas producing monoclonal antibodies reactive to the antigen peptide, the culture supernatant of each hybridoma was measured by ELISA. In the primary screening, as a positive antigen, a peptide to which BSA was conjugated was used as a carrier protein for each of the antigen peptides P1, P2 and P3. Specific operations were as follows.
The positive antigen was diluted with PBS to a concentration of 1 μg/mL. Positive antigen (50 μL) was added to each well of a 96 well plate. Then, the plate was incubated at 4° C. for 17 hours, and a positive antigen was immobilized in the well to obtain an antigen immobilized plate. Each well was washed three times with PBS (250 μL). To each well was added a blocking buffer (250 μL, 0.5% skim milk/PBS) and blocked at room temperature for 1 hour. Culture supernatant (50 μL) of each hybridoma was added to each well, and the cells were incubated at room temperature for 1 hour. Each well was washed three times with PBS (250 μL). An ALP-labeled anti-mouse IgG goat antibody (SBI, product number 1030-04) was diluted 1:2,500 with PBS. A solution (50 μL) of this labeled antibody was added to each well, and the well was incubated at room temperature for 30 minutes. Each well was washed three times with PBS (250 μL). […] The plate was set in a microplate reader, and the emission intensity was measured for each well.

- binding result (human Crtac1A): no binding
- binding result [1]: binds
B1: 15C2 antibody (monoclonal antibody derived from the hybridoma of clone 15C2) (antibody, mouse IgG1, kappa, V domains shown)
VH: EVQLQQFGAELVKPGASVKISCKASGYTFTDYNMDWVKQSHGKSLEWIGDINPNYDSSSYNQKFKGKATLTVDKSSSTAYMELRSLTSEDTAVYYCTRSGGTYWGQGTLVTVSA
VL: DIQMNQSPSSLSASLGDTITITCHASQNINVWLSWYQQKPGNIPKLLIYKASNLHTGVPSRFSGSGSGTGFSLTISSLQPEDIATYYCQQAQSYPRTFGGGTKLEIKR
notes: Mouse IgG1; Used as hybridoma culture supernatant (ELISA) or purified from supernatant (IB, IP); also called anti-Crtac1B antibody; antibody of the present embodiment
